The supplement of paper PMC5998384

How the values were obtained:
[1] = test system: HeLa Kyoto; test: solubility in G1/S (NP-40 vs SDS abundance) (log2 ratio); higher = more soluble; conditions: cell cycle stage: G1/S
[2] = test system: HeLa Kyoto; test: thermal stability score vs G1/S (z-score of summed log2 fold changes over temperatures); higher = more thermally stable than in G1/S
[3] = test system: HeLa Kyoto; test: solubility change mitosis vs G1/S (difference of NP-40 vs SDS log2 ratios) (log2 ratio difference); higher = more soluble in mitosis
[4] = test system: HeLa Kyoto; test: melting temperature (median over replicates), in situ; higher = more thermally stable
[5] = cell cycle stage: early G1 (4.5 h after nocodazole release)
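Wherever melting temperature (median over replicates), in situ is given: HeLa Kyoto cells synchronized by double thymidine or nocodazole block, proteins quantified by TMT10plex mass spectrometry, three independent biological replicates.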
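Wherever solubility change mitosis vs G1/S (difference of NP-40 vs SDS log2 ratios) is given: synchronized HeLa Kyoto cells (double thymidine block for G1/S, nocodazole release for mitosis), protein amounts in NP-40 versus SDS lysates quantified by mass spectrometry, three biological replicates.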
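Wherever solubility in G1/S (NP-40 vs SDS abundance) is given: HeLa Kyoto cells arrested at G1/S by double thymidine block, proteins quantified by TMT10plex mass spectrometry in mild NP-40 versus SDS extracts, three biological replicates.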
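Wherever thermal stability score vs G1/S (z-score of summed log2 fold changes over temperatures) is given: synchronized HeLa Kyoto cells, proteins quantified by TMT10plex mass spectrometry, three biological replicates, mitosis taken 0.5 h after nocodazole release, G1/S directly after double thymidine block.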

MFPFGPHSPGGDGSAGAGAEEPTPHEGQAAATGPPSPLHPGADATHPPPPARSPRRPGAPSLSPAPRSGELGLPGAPESSTASAPGEPSPPSPPCRRPGPDCRAKSRGRHGLGAGLGGPGARLFGWLKERSLGRGLFVDPARDNFRTMTSLYGSIHPADSVYLSTRTHGAVFNLEYSPDGSVLTVACEQTEVLLFDPISSKHIKTLSEAHEDCVNNIRFLDNRLFATCSDDTTIALWDLRKLNTKVCTLHGHTSWVKNIEYDTNTRLLVTSGFDGNVIIWDTNRYTEDGCPHKKFFHTRFLMRMRLTPDCSKMLISTSSGYLLILHDLDLTKSLEVGSYPILRARRTTSSSDLTTSSSSSGPRVSGSPCHHSDSNSSEKHMSRASQREGVSPRNSLEVVTPEVLGESDHGNCITSLQLHPKGWATLLRCSSNSDDEECTCVYEFQEGAPVRPVSPRCSLRLTHYIEEANVGRGYIKELCFSPDGRMISSPHGYGIRLLGFDKQCSELVDCLPKEASPLRVIRSLYSHNDVVLTTKFSPTHCQIASGCLSGRVSLYQPKF [DCAF10]
solubility in G1/S (log2) [1]: -0.0366 | thermal stability score [2, 5]: -2.74 | thermal stability score ([2]; cell cycle stage: mitosis): -3.62 | solubility change mitosis (log2) [3]: -0.0652 | melting temperature ([4]; cell cycle stage: G1/S): 53.7 °C | melting temperature ([4]; cell cycle stage: mitosis): 51.2 °C

MAAPILRSFSWGRWSGTLNLSVLLPLGLRKAHSGAQGLLAAQKARGLFKDFFPETGTKIELPELFDRGTASFPQTIYCGFDPTADSLHVGHLLALLGLFHLQRAGHNVIALVGGATARLGDPSGRTKEREALETERVRANARALRLGLEALAANHQQLFTDGRSWGSFTVLDNSAWYQKQHLVDFLAAVGGHFRMGTLLSRQSVQLRLKSPEGMSLAEFFYQVLQAYDFYYLFQRYGCRVQLGGSDQLGNIMSGYEFINKLTGEDVFGITVPLITSTTGAKLGKSAGNAVWLNRDKTSPFELYQFFVRQPDDSVERYLKLFTFLPLPEIDHIMQLHVKEPERRGPQKRLAAEVTKLVHGREGLDSAKRCTQALYHSSIDALEVMSDQELKELFKEAPFSEFFLDPGTSVLDTCRKANAIPDGPRGYRMITEGGVSINHQQVTNPESVLIVGQHILKNGLSLLKIGKRNFYIIKWLQL [YARS2]
solubility in G1/S (log2) [1]: 0.027 | thermal stability score [2, 5]: 0.871 | thermal stability score ([2]; cell cycle stage: mitosis): 4.36 | solubility change mitosis (log2) [3]: -0.0352 | melting temperature ([4]; cell cycle stage: G1/S): 48.8 °C | melting temperature ([4]; cell cycle stage: mitosis): 48.2 °C

MSESSSKSSQPLASKQEKDGTEKRGRGRPRKQPPVSPGTALVGSQKEPSEVPTPKRPRGRPKGSKNKGAAKTRKTTTTPGRKPRGRPKKLEKEEEEGISQESSEEEQ [HMGA1]
solubility in G1/S (log2) [1]: 0.583 | thermal stability score [2, 5]: -6.52 | thermal stability score ([2]; cell cycle stage: mitosis): -8.11 | solubility change mitosis (log2) [3]: 1.62 | melting temperature ([4]; cell cycle stage: mitosis): 57.6 °C

MDALNRNQIGPGCQTQTMVQKGPLDLIETGKGLKVQTDKPHLVSLGSGRLSTAITLLPLEEGRTVIGSAARDISLQGPGLAPEHCYIENLRGTLTLYPCGNACTIDGLPVRQPTRLTQGCMLCLGQSTFLRFNHPAEAKWMKSMIPAGGRAPGPPYSPVPAESESLVNGNHTPQTATRGPSACASHSSLVSSIEKDLQEIMDSLVLEEPGAAGKKPAATSPLSPMANGGRYLLSPPTSPGAMSVGSSYENTSPAFSPLSSPASSGSCASHSPSGQEPGPSVPPLVPARSSSYHLALQPPQSRPSGARSESPRLSRKGGHERPPSPGLRGLLTDSPAATVLAEARRATESPRLGGQLPVVAISLSEYPASGALSQPTSIPGSPKFQPPVPAPRNKIGTLQDRPPSPFREPPGSERVLTTSPSRQLVGRTFSDGLATRTLQPPESPRLGRRGLDSMRELPPLSPSLSRRALSPLPTRTTPDPKLNREVAESPRPRRWAAHGASPEDFSLTLGARGRRTRSPSPTLGESLAPHKGSFSGRLSPAYSLGSLTGASPCQSPCVQRKLSSGDLRVPVTRERKNSITEISDNEDDLLEYHRRQRQERLREQEMERLERQRLETILNLCAEYSRADGGPEAGELPSIGEATAALALAGRRPSRGLAGASGRSSEEPGVATQRLWESMERSDEENLKEECSSTESTQQEHEDAPSTKLQGEVLALEEERAQVLGHVEQLKVRVKELEQQLQESAREAEMERALLQGEREAERALLQKEQKAVDQLQEKLVALETGIQKERDKEAEALETETKLFEDLEFQQLERESRVEEERELAGQGLLRSKAELLRSIAKRKERLAILDSQAGQIRAQAVQESERLARDKNASLQLLQKEKEKLTVLERRYHSLTGGRPFPKTTSTLKEMEKLLLPAVDLEQWYQELMAGLGTGPAAASPHSSPPPLPAKASRQLQVYRSKMDGEATSPLPRTRSGPLPSSSGSSSSSSQLSVATLGRSPSPKSALLTQNGTGSLPRNLAATLQDIETKRQLALQQKGQQVIEEQRRRLAELKQKAAAEAQCQWDALHGAAPFPAGPSGFPPLMHHSILHHLPAGRERGEEGEHAYDTLSLESSDSMETSISTGGNSACSPDNMSSASGLDMGKIEEMEKMLKEAHAEKNRLMESREREMELRRQALEEERRRREQVERRLQSESARRQQLVEKEVKMREKQFSQARPLTRYLPIRKEDFDLKTHIESSGHGVDTCLHVVLSSKVCRGYLVKMGGKIKSWKKRWFVFDRLKRTLSYYVDKHETKLKGVIYFQAIEEVYYDHLRSAAKKRFFRFTMVTESPNPALTFCVKTHDRLYYMVAPSAEAMRIWMDVIVTGAEGYTQFMN [PHLDB1]
solubility in G1/S (log2) [1]: 0.0569 | thermal stability score [2, 5]: 0.702 | thermal stability score ([2]; cell cycle stage: mitosis): 1.01 | solubility change mitosis (log2) [3]: -0.13 | melting temperature ([4]; cell cycle stage: G1/S): 50.8 °C | melting temperature ([4]; cell cycle stage: mitosis): 51.1 °C

MSPVLHFYVRPSGHEGAAPGHTRRKLQGKLPELQGVETELCYNVNWTAEALPSAEETKKLMWLFGCPLLLDDVARESWLLPGSNDLLLEVGPRLNFSTPTSTNIVSVCRATGLGPVDRVETTRRYRLSFAHPPSAEVEAIALATLHDRMTEQHFPHPIQSFSPESMPEPLNGPINILGEGRLALEKANQELGLALDSWDLDFYTKRFQELQRNPSTVEAFDLAQSNSEHSRHWFFKGQLHVDGQKLVHSLFESIMSTQESSNPNNVLKFCDNSSAIQGKEVRFLRPEDPTRPSRFQQQQGLRHVVFTAETHNFPTGVCPFSGATTGTGGRIRDVQCTGRGAHVVAGTAGYCFGNLHIPGYNLPWEDPSFQYPGNFARPLEVAIEASNGASDYGNKFGEPVLAGFARSLGLQLPDGQRREWIKPIMFSGGIGSMEADHISKEAPEPGMEVVKVGGPVYRIGVGGGAASSVQVQGDNTSDLDFGAVQRGDPEMEQKMNRVIRACVEAPKGNPICSLHDQGAGGNGNVLKELSDPAGAIIYTSRFQLGDPTLNALEIWGAEYQESNALLLRSPNRDFLTHVSARERCPACFVGTITGDRRIVLVDDRECPVRRNGQGDAPPTPLPTPVDLELEWVLGKMPRKEFFLQRKPPMLQPLALPPGLSVHQALERVLRLPAVASKRYLTNKVDRSVGGLVAQQQCVGPLQTPLADVAVVALSHEELIGAATALGEQPVKSLLDPKVAARLAVAEALTNLVFALVTDLRDVKCSGNWMWAAKLPGEGAALADACEAMVAVMAALGVAVDGGKDSLSMAARVGTETVRAPGSLVISAYAVCPDITATVTPDLKHPEGRGHLLYVALSPGQHRLGGTALAQCFSQLGEHPPDLDLPENLVRAFSITQGLLKDRLLCSGHDVSDGGLVTCLLEMAFAGNCGLQVDVPVPRVDVLSVLFAEEPGLVLEVQEPDLAQVLKRYRDAGLHCLELGHTGEAGPHAMVRVSVNGAVVLEEPVGELRALWEETSFQLDRLQAEPRCVAEEERGLRERMGPSYCLPPTFPKASVPREPGGPSPRVAILREEGSNGDREMADAFHLAGFEVWDVTMQDLCSGAIGLDTFRGVAFVGGFSYADVLGSAKGWAAAVTFHPRAGAELRRFRKRPDTFSLGVCNGCQLLALLGWVGGDPNEDAAEMGPDSQPARPGLLLRHNLSGRYESRWASVRVGPGPALMLRGMEGAVLPVWSAHGEGYVAFSSPELQAQIEARGLAPLHWADDDGNPTEQYPLNPNGSPGGVAGICSCDGRHLAVMPHPERAVRPWQWAWRPPPFDTLTTSPWLQLFINARNWTLEGSC [PFAS]
solubility in G1/S (log2) [1]: 0.146 | thermal stability score [2, 5]: -3.18 | thermal stability score ([2]; cell cycle stage: mitosis): -3.7 | solubility change mitosis (log2) [3]: -0.0731 | melting temperature ([4]; cell cycle stage: G1/S): 51.9 °C | melting temperature ([4]; cell cycle stage: mitosis): 51.5 °C

PIK3C2A
solubility in G1/S (log2) [1]: -0.334 | thermal stability score [2, 5]: -0.0214 | thermal stability score ([2]; cell cycle stage: mitosis): 0.282 | solubility change mitosis (log2) [3]: -0.063 | melting temperature ([4]; cell cycle stage: G1/S): 49.3 °C | melting temperature ([4]; cell cycle stage: mitosis): 48.6 °C
